{"source": "paper PMC11574045", "about": "“A cofactor-induced repressive type of transcription factor condensation can be induced by synthetic peptides to suppress tumorigenesis” (The EMBO Journal, 2024)", "molecules": {"B1": {"name": "KLRG1 (protein, UniProt Q96E93 1-195, looked up)", "Killer cell lectin-like …": "MTDSVIYSMLELPTATQAQNDYGPQQKSSSSRPSCSCLVAIALGLLTAVLLSVLLYQWILCQGSNYSTCASCPSCPDRWMKYGNHCYYFSVEEKDWNSSLEFCLARDSHLLVITDNQEMSLLQVFLSEAFCWIGLRNNSGWRWEDGSPLNFSRISSNSFVQTCGAINKNGLQASSCEVPLHWVCKKCPFADQALF"}, "B2": {"name": "JADE2 (protein, UniProt Q9NQC1 1-790, looked up)", "E3 ubiquitin-protein ligase …": "MEEKRRKYSISSDNSDTTDSHATSTSASRCSKLPSSTKSGWPRQNEKKPSEVFRTDLITAMKIPDSYQLSPDDYYILADPWRQEWEKGVQVPAGAEAIPEPVVRILPPLEGPPAQASPSSTMLGEGSQPDWPGGSRYDLDEIDAYWLELINSELKEMERPELDELTLERVLEELETLCHQNMARAIETQEGLGIEYDEDVVCDVCRSPEGEDGNEMVFCDKCNVCVHQACYGILKVPTGSWLCRTCALGVQPKCLLCPKRGGALKPTRSGTKWVHVSCALWIPEVSIGCPEKMEPITKISHIPASRWALSCSLCKECTGTCIQCSMPSCVTAFHVTCAFDHGLEMRTILADNDEVKFKSFCQEHSDGGPRNEPTSEPTEPSQAGEDLEKVTLRKQRLQQLEEDFYELVEPAEVAERLDLAEALVDFIYQYWKLKRKANANQPLLTPKTDEVDNLAQQEQDVLYRRLKLFTHLRQDLERVRNLCYMVTRRERTKHAICKLQEQIFHLQMKLIEQDLCRGLSTSFPIDGTFFNSWLAQSVQITAENMAMSEWPLNNGHREDPAPGLLSEELLQDEETLLSFMRDPSLRPGDPARKARGRTRLPAKKKPPPPPPQDGPGSRTTPDKAPKKTWGQDAGSGKGGQGPPTRKPPRRTSSHLPSSPAAGDCPILATPESPPPLAPETPDEAASVAADSDVQVPGPAASPKPLGRLRPPRESKVTRRLPGARPDAGMGPPSAVAERPKVSLHFDTETDGYFSDGEMSDSDVEAEDGGVQRGPREAGAEEVVRMGVLAS"}, "B3": {"name": "IRF9 (protein, UniProt Q00978 1-393, looked up)", "Interferon regulatory factor 9": "MASGRARCTRKLRNWVVEQVESGQFPGVCWDDTAKTMFRIPWKHAGKQDFREDQDAAFFKAWAIFKGKYKEGDTGGPAVWKTRLRCALNKSSEFKEVPERGRMDVAEPYKVYQLLPPGIVSGQPGTQKVPSKRQHSSVSSERKEEEDAMQNCTLSPSVLQDSLNNEEEGASGGAVHSDIGSSSSSSSPEPQEVTDTTEAPFQGDQRSLEFLLPPEPDYSLLLTFIYNGRVVGEAQVQSLDCRLVAEPSGSESSMEQVLFPKPGPLEPTQRLLSQLERGILVASNPRGLFVQRLCPIPISWNAPQAPPGPGPHLLPSNECVELFRTAYFCRDLVRYFQGLGPPPKFQVTLNFWEESHGSSHTPQNLITVKMEQAFARYLLEQTPEQQAAILSLV"}, "B4": {"name": "JDP2 (protein, UniProt P97875 1-163, looked up)", "Jun dimerization protein 2": "MMPGQIPDPSVTAGSLPGLGPLTGLPSSALTTEELKYADIRNIGAMIAPLHFLEVKLGKRPQPVKSELDEEEERRKRRREKNKVAAARCRNKKKERTEFLQRESERLELMNAELKTQIEELKLERQQLILMLNRHRPTCIVRTDSVRTPESEGNPLLEQLDKK"}, "B5": {"name": "LASS3 (protein, UniProt Q8IU89 1-383, looked up)", "Ceramide synthase 3": "MFWTFKEWFWLERFWLPPTIKWSDLEDHDGLVFVKPSHLYVTIPYAFLLLIIRRVFEKFVASPLAKSFGIKETVRKVTPNTVLENFFKHSTRQPLQTDIYGLAKKCNLTERQVERWFRSRRNQERPSRLKKFQEACWRFAFYLMITVAGIAFLYDKPWLYDLWEVWNGYPKQPLLPSQYWYYILEMSFYWSLLFRLGFDVKRKDFLAHIIHHLAAISLMSFSWCANYIRSGTLVMIVHDVADIWLESAKMFSYAGWTQTCNTLFFIFSTIFFISRLIVFPFWILYCTLILPMYHLEPFFSYIFLNLQLMILQVLHLYWGYYILKMLNRCIFMKSIQDVRSDDEDYEEEEEEEEEEATKGKEMDCLKNGLRAERHLIPNGQHGH"}, "B6": {"name": "JUP (protein, UniProt P14923 1-745, looked up)", "Junction plakoglobin": "MEVMNLMEQPIKVTEWQQTYTYDSGIHSGANTCVPSVSSKGIMEEDEACGRQYTLKKTTTYTQGVPPSQGDLEYQMSTTARAKRVREAMCPGVSGEDSSLLLATQVEGQATNLQRLAEPSQLLKSAIVHLINYQDDAELATRALPELTKLLNDEDPVVVTKAAMIVNQLSKKEASRRALMGSPQLVAAVVRTMQNTSDLDTARCTTSILHNLSHHREGLLAIFKSGGIPALVRMLSSPVESVLFYAITTLHNLLLYQEGAKMAVRLADGLQKMVPLLNKNNPKFLAITTDCLQLLAYGNQESKLIILANGGPQALVQIMRNYSYEKLLWTTSRVLKVLSVCPSNKPAIVEAGGMQALGKHLTSNSPRLVQNCLWTLRNLSDVATKQEGLESVLKILVNQLSVDDVNVLTCATGTLSNLTCNNSKNKTLVTQNSGVEALIHAILRAGDKDDITEPAVCALRHLTSRHPEAEMAQNSVRLNYGIPAIVKLLNQPNQWPLVKATIGLIRNLALCPANHAPLQEAAVIPRLVQLLVKAHQDAQRHVAAGTQQPYTDGVRMEEIVEGCTGALHILARDPMNRMEIFRLNTIPLFVQLLYSSVENIQRVAAGVLCELAQDKEAADAIDAEGASAPLMELLHSRNEGTATYAAAVLFRISEDKNPDYRKRVSVELTNSLFKHDPAAWEAAQSMIPINEPYGDDMDATYRPMYSSDVPLDPLEMHMDMDGDYPIDTYSDGLRPPYPTADHMLA"}, "B7": {"name": "ARRB1 (protein, UniProt P49407 1-418, looked up)", "Beta-arrestin-1": "MGDKGTRVFKKASPNGKLTVYLGKRDFVDHIDLVDPVDGVVLVDPEYLKERRVYVTLTCAFRYGREDLDVLGLTFRKDLFVANVQSFPPAPEDKKPLTRLQERLIKKLGEHAYPFTFEIPPNLPCSVTLQPGPEDTGKACGVDYEVKAFCAENLEEKIHKRNSVRLVIRKVQYAPERPGPQPTAETTRQFLMSDKPLHLEASLDKEIYYHGEPISVNVHVTNNTNKTVKKIKISVRQYADICLFNTAQYKCPVAMEEADDTVAPSSTFCKVYTLTPFLANNREKRGLALDGKLKHEDTNLASSTLLREGANREILGIIVSYKVKVKLVVSRGGLLGDLASSDVAVELPFTLMHPKPKEEPPHREVPENETPVDTNLIELDTNDDDIVFEDFARQRLKGMKDDKEEEEDGTGSPQLNNR"}, "B8": {"name": "IRF5 (protein, UniProt Q13568 1-498, looked up)", "Interferon regulatory factor 5": "MNQSIPVAPTPPRRVRLKPWLVAQVNSCQYPGLQWVNGEKKLFCIPWRHATRHGPSQDGDNTIFKAWAKETGKYTEGVDEADPAKWKANLRCALNKSRDFRLIYDGPRDMPPQPYKIYEVCSNGPAPTDSQPPEDYSFGAGEEEEEEEELQRMLPSLSLTEDVKWPPTLQPPTLRPPTLQPPTLQPPVVLGPPAPDPSPLAPPPGNPAGFRELLSEVLEPGPLPASLPPAGEQLLPDLLISPHMLPLTDLEIKFQYRGRPPRALTISNPHGCRLFYSQLEATQEQVELFGPISLEQVRFPSPEDIPSDKQRFYTNQLLDVLDRGLILQLQGQDLYAIRLCQCKVFWSGPCASAHDSCPNPIQREVKTKLFSLEHFLNELILFQKGQTNTPPPFEIFFCFGEEWPDRKPREKKLITVQVVPVAARLLLEMFSGELSWSADSIRLQISNPDLKDRMVEQFKELHHIWQSQQRLQPVAQAPPGAGLGVGQGPWPMHPAGMQ"}, "B9": {"name": "IRF8 (protein, UniProt Q02556 1-426, looked up)", "Interferon regulatory factor 8": "MCDRNGGRRLRQWLIEQIDSSMYPGLIWENEEKSMFRIPWKHAGKQDYNQEVDASIFKAWAVFKGKFKEGDKAEPATWKTRLRCALNKSPDFEEVTDRSQLDISEPYKVYRIVPEEEQKCKLGVATAGCVNEVTEMECGRSEIDELIKEPSVDDYMGMIKRSPSPPEACRSQLLPDWWAQQPSTGVPLVTGYTTYDAHHSAFSQMVISFYYGGKLVGQATTTCPEGCRLSLSQPGLPGTKLYGPEGLELVRFPPADAIPSERQRQVTRKLFGHLERGVLLHSSRQGVFVKRLCQGRVFCSGNAVVCKGRPNKLERDEVVQVFDTSQFFRELQQFYNSQGRLPDGRVVLCFGEEFPDMAPLRSKLILVQIEQLYVRQLAEEAGKSCGAGSVMQAPEEPPPDQVFRMFPDICASHQRSFFRENQQITV"}, "B10": {"name": "LBX2 (protein, UniProt Q9WUN8 1-195, looked up)", "Transcription factor LBX2": "MNSVHQRRTPFSIADILGPSMVPEAPSAPQLPEAGPDPASPLCALEELASKTFLGHSPRATPQPSEGRAAPEAPPGPGAGVRRRRKSRTAFTAQQVLELERRFVFQKYLAPSERDGLAARLGLANAQVVTWFQNRRAKLKRDVEEMRADVASLCGLSPGVLCYPALPDSTSSPDPGPSGPDSEPNLSDEEIQVDD"}, "B11": {"name": "LASS6 (protein, UniProt Q6ZMG9 1-384, looked up)", "Ceramide synthase 6": "MAGILAWFWNERFWLPHNVTWADLKNTEEATFPQAEDLYLAFPLAFCIFMVRLIFERFVAKPCAIALNIQANGPQIAPPNAILEKVFTAITKHPDEKRLEGLSKQLDWDVRSIQRWFRQRRNQEKPSTLTRFCESMWRFSFYLYVFTYGVRFLKKTPWLWNTRHCWYNYPYQPLTTDLHYYYILELSFYWSLMFSQFTDIKRKDFGIMFLHHLVSIFLITFSYVNNMARVGTLVLCLHDSADALLEAAKMANYAKFQKMCDLLFVMFAVVFITTRLGIFPLWVLNTTLFESWEIVGPYPSWWVFNLLLLLVQGLNCFWSYLIVKIACKAVSRGKVSKDDRSDIESSSDEEDSEPPGKNPHTATTTNGTSGTNGYLLTGSCSMDD"}, "B12": {"name": "JUNB (protein, UniProt P17275 1-347, looked up)", "Transcription factor JunB": "MCTKMEQPFYHDDSYTATGYGRAPGGLSLHDYKLLKPSLAVNLADPYRSLKAPGARGPGPEGGGGGSYFSGQGSDTGASLKLASSELERLIVPNSNGVITTTPTPPGQYFYPRGGGSGGGAGGAGGGVTEEQEGFADGFVKALDDLHKMNHVTPPNVSLGATGGPPAGPGGVYAGPEPPPVYTNLSSYSPASASSGGAGAAVGTGSSYPTTTISYLPHAPPFAGGHPAQLGLGRGASTFKEEPQTVPEARSRDATPPVSPINMEDQERIKVERKRLRNRLAATKCRKRKLERIARLEDKVKTLKAENAGLSSTAGLLREQVAQLKQKVMTHVSNGCQLLLGVKGHAF"}, "B13": {"name": "LASS4 (protein, UniProt Q9HA82 1-394, looked up)", "Ceramide synthase 4": "MLSSFNEWFWQDRFWLPPNVTWTELEDRDGRVYPHPQDLLAALPLALVLLAMRLAFERFIGLPLSRWLGVRDQTRRQVKPNATLEKHFLTEGHRPKEPQLSLLAAQCGLTLQQTQRWFRRRRNQDRPQLTKKFCEASWRFLFYLSSFVGGLSVLYHESWLWAPVMCWDRYPNQTLKPSLYWWYLLELGFYLSLLIRLPFDVKRKDFKEQVIHHFVAVILMTFSYSANLLRIGSLVLLLHDSSDYLLEACKMVNYMQYQQVCDALFLIFSFVFFYTRLVLFPTQILYTTYYESISNRGPFFGYYFFNGLLMLLQLLHVFWSCLILRMLYSFMKKGQMEKDIRSDVEESDSSEEAAAAQEPLQLKNGAAGGPRPAPTDGPRSRVAGRLTNRHTTAT"}}}
{"test_system": "HEK293FT cells transfected with TF library", "assay": "Screening of TF condensates based on fluorescent puncta", "assay_type": "cell-based", "conditions": "Figure 1B numerical data; TF library screen, one value per transcriptional factor", "how_it_was_run": "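Cells were seeded onto plasmid/PEI-loaded wells (plasmid 1.6 μg/ml final) and grown 60 h. Medium with or without glucose followed for 12 h. Fixed, permeabilized cells were stained against Flag or GAL4 tags, and condensate puncta were quantified from 50 random fields per well.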"}
{"molecule": "B1", "Z score of condensed fraction": 2.376}
{"molecule": "B2", "Z score of condensed fraction": -1.0906}
{"molecule": "B3", "Z score of condensed fraction": 1.05}
{"molecule": "B4", "Z score of condensed fraction": -1.182}
{"molecule": "B5", "Z score of condensed fraction": -1.783}
{"molecule": "B6", "Z score of condensed fraction": -0.6246}
{"molecule": "B7", "Z score of condensed fraction": 0.4258}
{"molecule": "B8", "Z score of condensed fraction": -0.5098}
{"molecule": "B9", "Z score of condensed fraction": 2.123}
{"molecule": "B10", "Z score of condensed fraction": -0.9162}
{"molecule": "B11", "Z score of condensed fraction": -0.6196}
{"molecule": "B12", "Z score of condensed fraction": -0.9915}
{"molecule": "B13", "Z score of condensed fraction": -0.3767}
